This is an account of results in paper PMC11693862 (Acta Biochimica et Biophysica Sinica, 2024).

Common to all, as to assay: crystal structure
The target of assay [1] is SARS-CoV-2 M pro S46F (SARS-CoV-2).
Assay [2] addresses SARS-CoV-2 M pro V186F (SARS-CoV-2).
Assay [3] has as its target SARS-CoV-2 M pro G15S (SARS-CoV-2).
Assay [4] addresses SARS-CoV-2 M pro M49I (SARS-CoV-2).
Assay [5] has as its target SARS-CoV-2 M pro P132H (SARS-CoV-2).
Assay [6] deals with SARS-CoV-2 M pro Y54C (SARS-CoV-2).
For assay [7], the target named is SARS-CoV-2 M pro K90R (SARS-CoV-2).

The term stoichiometry N denotes the number of molecules, sites or subunits per partner or assembly. SARS-CoV-2 M pro S46F (enzyme) returned a stoichiometry N in assay [1] of 2. Turning to SARS-CoV-2 M pro V186F (enzyme), the stoichiometry N in assay [2] came out at 2. In assay [3], SARS-CoV-2 M pro G15S (enzyme) yielded a stoichiometry N of 2. SARS-CoV-2 M pro M49I (enzyme) displayed a stoichiometry N in assay [4] of 2. Consider SARS-CoV-2 M pro P132H (enzyme), for which, in assay [5], the stoichiometry N was found to be 2.

SARS-CoV-2 M pro Y54C (enzyme) gave a stoichiometry N in assay [6] of 2. SARS-CoV-2 M pro K90R (enzyme) showed a stoichiometry N in assay [7] of 2.
